B3: IL-17RB-Flag (Flag-tagged IL-17RB, wild type) (receptor)
chain: REPTVQCGSETGPSPEWMLQHDLIPGDLRDLRVEPVTTSVATGDYSILMNVSWVLRADASIRLLKATKICVTGKSNFQSYSCVRCNYTEAFQTQTRPSGGKWTFSYIGFPVELNTVYFIGAHNIPNANMNEDGPSMSVNFTSPGCLDHIMKYKKKCVKAGSLWDPNITACKKNEETVEVNFTTTPLGNRYMALIQHSTIIGFSQVFEPHQKKQTRASVVIPVTGDSEGATVQLTPYFPTCGSDCIRHKGTVVLCPQTGVPFPLDNNKSKPGGWLPLLLLSLLVATWVLVAGIYLMWRHERIKKTSFSTTTLLPPIKVLVVYPSEICFHHTICYFTEFLQNHCRSEVILEKWQKKKIAEMGPVQWLATQKKAADKVVFLLSNDVNSVCDGTCGKSEGSPSENSQDLFPLAFNLFCSDLRSQIHLHKYVVVYFREIDTKDDYNALSVCPKYHLMKDATAFCAELLHVKQQVSAGKRSQACHDGCCSL
notes: The construct as expressed; also called Flag-IL-17RB; Flag-tagged WT IL-17RB; not shown: Flag tag
B4: IL-17RB-HA (C-terminally HA-tagged full-length IL-17RB, wild type) (receptor)
chain: REPTVQCGSETGPSPEWMLQHDLIPGDLRDLRVEPVTTSVATGDYSILMNVSWVLRADASIRLLKATKICVTGKSNFQSYSCVRCNYTEAFQTQTRPSGGKWTFSYIGFPVELNTVYFIGAHNIPNANMNEDGPSMSVNFTSPGCLDHIMKYKKKCVKAGSLWDPNITACKKNEETVEVNFTTTPLGNRYMALIQHSTIIGFSQVFEPHQKKQTRASVVIPVTGDSEGATVQLTPYFPTCGSDCIRHKGTVVLCPQTGVPFPLDNNKSKPGGWLPLLLLSLLVATWVLVAGIYLMWRHERIKKTSFSTTTLLPPIKVLVVYPSEICFHHTICYFTEFLQNHCRSEVILEKWQKKKIAEMGPVQWLATQKKAADKVVFLLSNDVNSVCDGTCGKSEGSPSENSQDLFPLAFNLFCSDLRSQIHLHKYVVVYFREIDTKDDYNALSVCPKYHLMKDATAFCAELLHVKQQVSAGKRSQACHDGCCSL
notes: Full-length IL-17RB subcloned into pcDNA3.1, expressed in 293T, IL-17RB-KO BxPC3 or SU.86.86 cells; also called HA-IL-17RB; HA-tagged WT IL-17RB; not shown: HA tag, C-terminal

In series [1] the target is T1, TRIM56 (tripartite-motif 56), endogenous (human, UniProt Q9BRZ2 1-755).
T1 construct: also called ubiquitin E3 ligase TRIM56
T1 sequence (looked up): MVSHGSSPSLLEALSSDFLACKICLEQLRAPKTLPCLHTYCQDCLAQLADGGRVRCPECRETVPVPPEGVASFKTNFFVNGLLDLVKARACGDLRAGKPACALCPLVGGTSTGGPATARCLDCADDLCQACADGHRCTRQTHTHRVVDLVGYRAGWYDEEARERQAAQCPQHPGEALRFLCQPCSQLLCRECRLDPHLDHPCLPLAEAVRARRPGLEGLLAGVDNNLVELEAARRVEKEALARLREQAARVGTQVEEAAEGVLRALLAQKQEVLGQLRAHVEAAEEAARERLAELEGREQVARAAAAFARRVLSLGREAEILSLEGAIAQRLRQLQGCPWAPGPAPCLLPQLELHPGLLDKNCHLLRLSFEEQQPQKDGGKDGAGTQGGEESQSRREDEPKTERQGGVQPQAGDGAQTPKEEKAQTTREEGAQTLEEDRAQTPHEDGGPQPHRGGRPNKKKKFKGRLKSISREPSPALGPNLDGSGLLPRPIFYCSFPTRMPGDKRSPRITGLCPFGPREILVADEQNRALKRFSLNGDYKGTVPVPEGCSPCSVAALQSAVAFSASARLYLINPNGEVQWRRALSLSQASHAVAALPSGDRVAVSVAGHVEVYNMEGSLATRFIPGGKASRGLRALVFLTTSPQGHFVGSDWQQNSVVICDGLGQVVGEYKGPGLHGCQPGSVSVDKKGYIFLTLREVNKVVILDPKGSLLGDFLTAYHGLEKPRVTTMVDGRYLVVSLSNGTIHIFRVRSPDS
Kind of series: co-IP with anti-Flag beads (FIG. 17F).

The target of series [2] is T2, HA-TRIM56 (TRIM56-HA, HA-tagged tripartite-motif 56) (UniProt Q9BRZ2 1-755).
T2 construct: also called HA-tagged TRIM56; HA-TIM56; not shown: HA tag of the C-HA vector
T2 sequence (looked up): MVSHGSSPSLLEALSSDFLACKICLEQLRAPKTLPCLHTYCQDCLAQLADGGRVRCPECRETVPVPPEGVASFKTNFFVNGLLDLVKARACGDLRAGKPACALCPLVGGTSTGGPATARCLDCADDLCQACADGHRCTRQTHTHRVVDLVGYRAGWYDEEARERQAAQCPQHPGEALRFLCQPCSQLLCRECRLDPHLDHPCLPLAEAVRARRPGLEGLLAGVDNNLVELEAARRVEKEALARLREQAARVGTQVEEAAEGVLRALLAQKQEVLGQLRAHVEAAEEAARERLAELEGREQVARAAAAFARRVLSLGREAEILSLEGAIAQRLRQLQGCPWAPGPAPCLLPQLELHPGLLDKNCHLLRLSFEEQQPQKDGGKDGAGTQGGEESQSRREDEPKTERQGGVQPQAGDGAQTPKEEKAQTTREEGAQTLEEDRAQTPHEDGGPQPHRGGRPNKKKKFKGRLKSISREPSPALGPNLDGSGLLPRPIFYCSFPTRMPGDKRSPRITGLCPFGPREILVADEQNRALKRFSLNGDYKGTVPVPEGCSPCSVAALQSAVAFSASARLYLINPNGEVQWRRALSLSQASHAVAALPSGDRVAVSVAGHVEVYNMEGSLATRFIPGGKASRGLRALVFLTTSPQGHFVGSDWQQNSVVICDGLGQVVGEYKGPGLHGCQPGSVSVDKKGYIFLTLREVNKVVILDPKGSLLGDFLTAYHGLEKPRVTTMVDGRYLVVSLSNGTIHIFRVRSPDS
Kind of series: reciprocal co-IP, 293T cells, rIL-17B (FIG. 6D).

For series [3], the target named is B4. Kind of series: co-IP with anti-HA beads, 293T cells, rIL-17B (FIG. 4B).
Series [4] has as its target B3. Kind of series: Duolink in situ interaction assay with anti-HA and anti-Flag, IL-17RB-KO BxPC3 cells (FIG. 4C, FIG. 13D).
Series [5] deals with the molecule itself. The series can be described thus: Duolink in situ interaction assay with anti-IL-17RB (D9), CFPAC1 cells, 50 ng/ml rIL-17B (FIG. 4D).
The target of series [6] is B4. Kind of series: co-IP with anti-HA beads, IL-17RB-KO BxPC3 cells, 50 ng/ml rIL-17B (FIG. 14B).
The target of series [7] is T2, HA-TRIM56 (TRIM56-HA, HA-tagged …). The series can be described thus: co-IP in 293T cells (FIG. 6B) and native-PAGE of mixed purified proteins (FIG. 17A).

B1: IL-17RB ΔN458˜V462 (Del-6), Flag-tagged (receptor)
chain: REPTVQCGSETGPSPEWMLQHDLIPGDLRDLRVEPVTTSVATGDYSILMNVSWVLRADASIRLLKATKICVTGKSNFQSYSCVRCNYTEAFQTQTRPSGGKWTFSYIGFPVELNTVYFIGAHNIPNANMNEDGPSMSVNFTSPGCLDHIMKYKKKCVKAGSLWDPNITACKKNEETVEVNFTTTPLGNRYMALIQHSTIIGFSQVFEPHQKKQTRASVVIPVTGDSEGATVQLTPYFPTCGSDCIRHKGTVVLCPQTGVPFPLDNNKSKPGGWLPLLLLSLLVATWVLVAGIYLMWRHERIKKTSFSTTTLLPPIKVLVVYPSEICFHHTICYFTEFLQNHCRSEVILEKWQKKKIAEMGPVQWLATQKKAADKVVFLLSNDVNSVCDGTCGKSEGSPSENSQDLFPLAFNLFCSDLRSQIHLHKYVVVYFREIDTKDDYCPKYHLMKDATAFCAELLHVKQQVSAGKRSQACHDGCCSL
notes: also called Del-6 (ΔN458-V462) IL-17RB; not shown: Flag tag
For B1, the binding result in series [1] is “no binding (tested: 50 ng/ml rIL-17B)”; in series [2], “no binding”.

B2: IL-17RB ΔK470˜Q484 (Del-7), Flag-tagged (receptor)
chain: REPTVQCGSETGPSPEWMLQHDLIPGDLRDLRVEPVTTSVATGDYSILMNVSWVLRADASIRLLKATKICVTGKSNFQSYSCVRCNYTEAFQTQTRPSGGKWTFSYIGFPVELNTVYFIGAHNIPNANMNEDGPSMSVNFTSPGCLDHIMKYKKKCVKAGSLWDPNITACKKNEETVEVNFTTTPLGNRYMALIQHSTIIGFSQVFEPHQKKQTRASVVIPVTGDSEGATVQLTPYFPTCGSDCIRHKGTVVLCPQTGVPFPLDNNKSKPGGWLPLLLLSLLVATWVLVAGIYLMWRHERIKKTSFSTTTLLPPIKVLVVYPSEICFHHTICYFTEFLQNHCRSEVILEKWQKKKIAEMGPVQWLATQKKAADKVVFLLSNDVNSVCDGTCGKSEGSPSENSQDLFPLAFNLFCSDLRSQIHLHKYVVVYFREIDTKDDYNALSVCPKYHLMQVSAGKRSQACHDGCCSL
notes: not shown: Flag tag
With B2, in series [2], the binding result is given as “no binding”.
Turning to B3, the binding result in series [3] is “binds”.
Turning to B4, the binding result in series [4] is “binds”.

B5: interleukin-17 receptor B (IL-17RB), human, endogenous in pancreatic cancer cells (receptor)
chain: REPTVQCGSETGPSPEWMLQHDLIPGDLRDLRVEPVTTSVATGDYSILMNVSWVLRADASIRLLKATKICVTGKSNFQSYSCVRCNYTEAFQTQTRPSGGKWTFSYIGFPVELNTVYFIGAHNIPNANMNEDGPSMSVNFTSPGCLDHIMKYKKKCVKAGSLWDPNITACKKNEETVEVNFTTTPLGNRYMALIQHSTIIGFSQVFEPHQKKQTRASVVIPVTGDSEGATVQLTPYFPTCGSDCIRHKGTVVLCPQTGVPFPLDNNKSKPGGWLPLLLLSLLVATWVLVAGIYLMWRHERIKKTSFSTTTLLPPIKVLVVYPSEICFHHTICYFTEFLQNHCRSEVILEKWQKKKIAEMGPVQWLATQKKAADKVVFLLSNDVNSVCDGTCGKSEGSPSENSQDLFPLAFNLFCSDLRSQIHLHKYVVVYFREIDTKDDYNALSVCPKYHLMKDATAFCAELLHVKQQVSAGKRSQACHDGCCSL
notes: Endogenous receptor of CFPAC1 / BxPC3 cells, precipitated from lysates or stained in situ; also called interleukin-17B receptor
With B5, the binding result in series [5] is “binds”.

B6: IL-17RB Y447F, Flag-tagged (receptor)
chain: REPTVQCGSETGPSPEWMLQHDLIPGDLRDLRVEPVTTSVATGDYSILMNVSWVLRADASIRLLKATKICVTGKSNFQSYSCVRCNYTEAFQTQTRPSGGKWTFSYIGFPVELNTVYFIGAHNIPNANMNEDGPSMSVNFTSPGCLDHIMKYKKKCVKAGSLWDPNITACKKNEETVEVNFTTTPLGNRYMALIQHSTIIGFSQVFEPHQKKQTRASVVIPVTGDSEGATVQLTPYFPTCGSDCIRHKGTVVLCPQTGVPFPLDNNKSKPGGWLPLLLLSLLVATWVLVAGIYLMWRHERIKKTSFSTTTLLPPIKVLVVYPSEICFHHTICYFTEFLQNHCRSEVILEKWQKKKIAEMGPVQWLATQKKAADKVVFLLSNDVNSVCDGTCGKSEGSPSENSQDLFPLAFNLFCSDLRSQIHLHKYVVVFFREIDTKDDYNALSVCPKYHLMKDATAFCAELLHVKQQVSAGKRSQACHDGCCSL
notes: also called Y447F mutant of IL-17RB; not shown: Flag tag
B6: the results for the binding result in series [6] and in series [7] were “binds” and “no binding”, respectively.

B7: IL-17RB ΔV403˜S416 (Del-3), Flag-tagged (receptor)
chain: REPTVQCGSETGPSPEWMLQHDLIPGDLRDLRVEPVTTSVATGDYSILMNVSWVLRADASIRLLKATKICVTGKSNFQSYSCVRCNYTEAFQTQTRPSGGKWTFSYIGFPVELNTVYFIGAHNIPNANMNEDGPSMSVNFTSPGCLDHIMKYKKKCVKAGSLWDPNITACKKNEETVEVNFTTTPLGNRYMALIQHSTIIGFSQVFEPHQKKQTRASVVIPVTGDSEGATVQLTPYFPTCGSDCIRHKGTVVLCPQTGVPFPLDNNKSKPGGWLPLLLLSLLVATWVLVAGIYLMWRHERIKKTSFSTTTLLPPIKVLVVYPSEICFHHTICYFTEFLQNHCRSEVILEKWQKKKIAEMGPVQWLATQKKAADKVVFLLSNDVNSENSQDLFPLAFNLFCSDLRSQIHLHKYVVVYFREIDTKDDYNALSVCPKYHLMKDATAFCAELLHVKQQVSAGKRSQACHDGCCSL
notes: not shown: Flag tag
As for B7, the binding result in series [2] was “no binding”.

The record behind these values is patent US20240124528A1 (ACADEMIA SINICA, published 2024).
